Results published in patent US20140087995A1 (published 2014).
Numbered stars: 1 amine (or outer) side, 2 acyl side, 3 side chain; on linkers, the order of the positions; unused ones are H or OH. Bridge positions count the residues as written; N and C are the ends. Side chains are listed from the residue outwards. Ends that are not written are not given here. * marks the point of attachment. C20 diacid = O=C(O)CCCCCCCCCCCCCCCCCCC(=O)*; γGlu = O=C(O)[C@H](CCC(=O)[*:2])N[*:1]; AEEA = NCCOCCOCC(=O)O

B1: N^ε1-[2-[2-[2-[[(4S)-4-carboxy-4-(19-carboxynonadecanoylamino)butanoyl]amino]ethoxy]ethoxy]acetyl]-[Arg17,Pro21,Pro27,Pro29,Pro31]-h-amylin (peptide)
peptide: K([AEEA-γGlu-C20 diacid])CNTATCATQRLANFLRHSSPNFGAIPSPTPVGSNTY-NH2
modifications: disulfide 2-7; N-terminus assumed
SMILES: CC[C@H](C)[C@H](NC(=O)[C@H](C)NC(=O)CNC(=O)[C@H](Cc1ccccc1)NC(=O)[C@H](CC(N)=O)NC(=O)[C@@H]1CCCN1C(=O)[C@H](CO)NC(=O)[C@H](CO)NC(=O)[C@H](Cc1c[nH]cn1)NC(=O)[C@H](CCCNC(=N)N)NC(=O)[C@H](CC(C)C)NC(=O)[C@H](Cc1ccccc1)NC(=O)[C@H](CC(N)=O)NC(=O)[C@H](C)NC(=O)[C@H](CC(C)C)NC(=O)[C@H](CCCNC(=N)N)NC(=O)[C@H](CCC(N)=O)NC(=O)[C@@H](NC(=O)[C@H](C)NC(=O)[C@@H]1CSSC[C@H](NC(=O)[C@@H](N)CCCCNC(=O)COCCOCCNC(=O)CC[C@H](NC(=O)CCCCCCCCCCCCCCCCCCC(=O)O)C(=O)O)C(=O)N[C@@H](CC(N)=O)C(=O)N[C@@H]([C@@H](C)O)C(=O)N[C@@H](C)C(=O)N[C@@H]([C@@H](C)O)C(=O)N1)[C@@H](C)O)C(=O)N1CCC[C@H]1C(=O)N[C@@H](CO)C(=O)N1CCC[C@H]1C(=O)N[C@H](C(=O)N1CCC[C@H]1C(=O)N[C@H](C(=O)NCC(=O)N[C@@H](CO)C(=O)N[C@@H](CC(N)=O)C(=O)N[C@H](C(=O)N[C@@H](Cc1ccc(O)cc1)C(N)=O)[C@@H](C)O)C(C)C)[C@@H](C)O
notes: Synthetic acylated analogue of human amylin; also called compound 54
B2: N^ε1-[(4S)-4-carboxy-4-(19-carboxynonadecanoylamino)butanoyl]-[Arg17,Pro21,Pro27,Lys35]-h-amylin (peptide)
peptide: K([γGlu-C20 diacid])CNTATCATQRLANFLRHSSPNFGAIPSSTNVGSKTY-NH2
modifications: disulfide 2-7; N-terminus assumed
SMILES: CC[C@H](C)[C@H](NC(=O)[C@H](C)NC(=O)CNC(=O)[C@H](Cc1ccccc1)NC(=O)[C@H](CC(N)=O)NC(=O)[C@@H]1CCCN1C(=O)[C@H](CO)NC(=O)[C@H](CO)NC(=O)[C@H](Cc1c[nH]cn1)NC(=O)[C@H](CCCNC(=N)N)NC(=O)[C@H](CC(C)C)NC(=O)[C@H](Cc1ccccc1)NC(=O)[C@H](CC(N)=O)NC(=O)[C@H](C)NC(=O)[C@H](CC(C)C)NC(=O)[C@H](CCCNC(=N)N)NC(=O)[C@H](CCC(N)=O)NC(=O)[C@@H](NC(=O)[C@H](C)NC(=O)[C@@H]1CSSC[C@H](NC(=O)[C@@H](N)CCCCNC(=O)CC[C@H](NC(=O)CCCCCCCCCCCCCCCCCCC(=O)O)C(=O)O)C(=O)N[C@@H](CC(N)=O)C(=O)N[C@@H]([C@@H](C)O)C(=O)N[C@@H](C)C(=O)N[C@@H]([C@@H](C)O)C(=O)N1)[C@@H](C)O)C(=O)N1CCC[C@H]1C(=O)N[C@@H](CO)C(=O)N[C@@H](CO)C(=O)N[C@H](C(=O)N[C@@H](CC(N)=O)C(=O)N[C@H](C(=O)NCC(=O)N[C@@H](CO)C(=O)N[C@@H](CCCCN)C(=O)N[C@H](C(=O)N[C@@H](Cc1ccc(O)cc1)C(N)=O)[C@@H](C)O)C(C)C)[C@@H](C)O
notes: Synthetic acylated analogue of human amylin; also called compound 35
B3: N^ε1-[2-[2-[2-[[(4S)-4-carboxy-4-(19-carboxynonadecanoylamino)butanoyl]amino]ethoxy]ethoxy]acetyl]-[Arg17,Pro21,Pro27,Pro31]-h-amylin (peptide)
peptide: K([AEEA-γGlu-C20 diacid])CNTATCATQRLANFLRHSSPNFGAIPSSTPVGSNTY-NH2
modifications: disulfide 2-7; N-terminus assumed
SMILES: CC[C@H](C)[C@H](NC(=O)[C@H](C)NC(=O)CNC(=O)[C@H](Cc1ccccc1)NC(=O)[C@H](CC(N)=O)NC(=O)[C@@H]1CCCN1C(=O)[C@H](CO)NC(=O)[C@H](CO)NC(=O)[C@H](Cc1c[nH]cn1)NC(=O)[C@H](CCCNC(=N)N)NC(=O)[C@H](CC(C)C)NC(=O)[C@H](Cc1ccccc1)NC(=O)[C@H](CC(N)=O)NC(=O)[C@H](C)NC(=O)[C@H](CC(C)C)NC(=O)[C@H](CCCNC(=N)N)NC(=O)[C@H](CCC(N)=O)NC(=O)[C@@H](NC(=O)[C@H](C)NC(=O)[C@@H]1CSSC[C@H](NC(=O)[C@@H](N)CCCCNC(=O)COCCOCCNC(=O)CC[C@H](NC(=O)CCCCCCCCCCCCCCCCCCC(=O)O)C(=O)O)C(=O)N[C@@H](CC(N)=O)C(=O)N[C@@H]([C@@H](C)O)C(=O)N[C@@H](C)C(=O)N[C@@H]([C@@H](C)O)C(=O)N1)[C@@H](C)O)C(=O)N1CCC[C@H]1C(=O)N[C@@H](CO)C(=O)N[C@@H](CO)C(=O)N[C@H](C(=O)N1CCC[C@H]1C(=O)N[C@H](C(=O)NCC(=O)N[C@@H](CO)C(=O)N[C@@H](CC(N)=O)C(=O)N[C@H](C(=O)N[C@@H](Cc1ccc(O)cc1)C(N)=O)[C@@H](C)O)C(C)C)[C@@H](C)O
notes: Synthetic acylated analogue of human amylin; also called compound 49
B4: N^ε1-[(4S)-4-carboxy-4-(19-carboxynonadecanoylamino)butanoyl]-[Glu14,Arg17,Pro21,Pro27,Arg35]-h-amylin (peptide)
peptide: K([γGlu-C20 diacid])CNTATCATQRLAEFLRHSSPNFGAIPSSTNVGSRTY-NH2
modifications: disulfide 2-7; N-terminus assumed
SMILES: CC[C@H](C)[C@H](NC(=O)[C@H](C)NC(=O)CNC(=O)[C@H](Cc1ccccc1)NC(=O)[C@H](CC(N)=O)NC(=O)[C@@H]1CCCN1C(=O)[C@H](CO)NC(=O)[C@H](CO)NC(=O)[C@H](Cc1c[nH]cn1)NC(=O)[C@H](CCCNC(=N)N)NC(=O)[C@H](CC(C)C)NC(=O)[C@H](Cc1ccccc1)NC(=O)[C@H](CCC(=O)O)NC(=O)[C@H](C)NC(=O)[C@H](CC(C)C)NC(=O)[C@H](CCCNC(=N)N)NC(=O)[C@H](CCC(N)=O)NC(=O)[C@@H](NC(=O)[C@H](C)NC(=O)[C@@H]1CSSC[C@H](NC(=O)[C@@H](N)CCCCNC(=O)CC[C@H](NC(=O)CCCCCCCCCCCCCCCCCCC(=O)O)C(=O)O)C(=O)N[C@@H](CC(N)=O)C(=O)N[C@@H]([C@@H](C)O)C(=O)N[C@@H](C)C(=O)N[C@@H]([C@@H](C)O)C(=O)N1)[C@@H](C)O)C(=O)N1CCC[C@H]1C(=O)N[C@@H](CO)C(=O)N[C@@H](CO)C(=O)N[C@H](C(=O)N[C@@H](CC(N)=O)C(=O)N[C@H](C(=O)NCC(=O)N[C@@H](CO)C(=O)N[C@@H](CCCNC(=N)N)C(=O)N[C@H](C(=O)N[C@@H](Cc1ccc(O)cc1)C(N)=O)[C@@H](C)O)C(C)C)[C@@H](C)O
notes: Synthetic acylated analogue of human amylin; also called compound 51
B5: N^ε1-[(4S)-4-carboxy-4-(19-carboxynonadecanoylamino)butanoyl]-[Arg17,Pro21,Pro27,Glu35]-h-amylin (peptide)
peptide: K([γGlu-C20 diacid])CNTATCATQRLANFLRHSSPNFGAIPSSTNVGSETY-NH2
modifications: disulfide 2-7; N-terminus assumed
SMILES: CC[C@H](C)[C@H](NC(=O)[C@H](C)NC(=O)CNC(=O)[C@H](Cc1ccccc1)NC(=O)[C@H](CC(N)=O)NC(=O)[C@@H]1CCCN1C(=O)[C@H](CO)NC(=O)[C@H](CO)NC(=O)[C@H](Cc1c[nH]cn1)NC(=O)[C@H](CCCNC(=N)N)NC(=O)[C@H](CC(C)C)NC(=O)[C@H](Cc1ccccc1)NC(=O)[C@H](CC(N)=O)NC(=O)[C@H](C)NC(=O)[C@H](CC(C)C)NC(=O)[C@H](CCCNC(=N)N)NC(=O)[C@H](CCC(N)=O)NC(=O)[C@@H](NC(=O)[C@H](C)NC(=O)[C@@H]1CSSC[C@H](NC(=O)[C@@H](N)CCCCNC(=O)CC[C@H](NC(=O)CCCCCCCCCCCCCCCCCCC(=O)O)C(=O)O)C(=O)N[C@@H](CC(N)=O)C(=O)N[C@@H]([C@@H](C)O)C(=O)N[C@@H](C)C(=O)N[C@@H]([C@@H](C)O)C(=O)N1)[C@@H](C)O)C(=O)N1CCC[C@H]1C(=O)N[C@@H](CO)C(=O)N[C@@H](CO)C(=O)N[C@H](C(=O)N[C@@H](CC(N)=O)C(=O)N[C@H](C(=O)NCC(=O)N[C@@H](CO)C(=O)N[C@@H](CCC(=O)O)C(=O)N[C@H](C(=O)N[C@@H](Cc1ccc(O)cc1)C(N)=O)[C@@H](C)O)C(C)C)[C@@H](C)O
notes: Synthetic acylated analogue of human amylin; also called compound 27
B6: N^ε1-[2-[2-[2-[[(4S)-4-carboxy-4-(19-carboxynonadecanoylamino)butanoyl]amino]ethoxy]ethoxy]acetyl]-[Arg17,Pro21,Pro27,Pro34]-h-amylin (peptide)
peptide: K([AEEA-γGlu-C20 diacid])CNTATCATQRLANFLRHSSPNFGAIPSSTNVGPNTY-NH2
modifications: disulfide 2-7; N-terminus assumed
SMILES: CC[C@H](C)[C@H](NC(=O)[C@H](C)NC(=O)CNC(=O)[C@H](Cc1ccccc1)NC(=O)[C@H](CC(N)=O)NC(=O)[C@@H]1CCCN1C(=O)[C@H](CO)NC(=O)[C@H](CO)NC(=O)[C@H](Cc1c[nH]cn1)NC(=O)[C@H](CCCNC(=N)N)NC(=O)[C@H](CC(C)C)NC(=O)[C@H](Cc1ccccc1)NC(=O)[C@H](CC(N)=O)NC(=O)[C@H](C)NC(=O)[C@H](CC(C)C)NC(=O)[C@H](CCCNC(=N)N)NC(=O)[C@H](CCC(N)=O)NC(=O)[C@@H](NC(=O)[C@H](C)NC(=O)[C@@H]1CSSC[C@H](NC(=O)[C@@H](N)CCCCNC(=O)COCCOCCNC(=O)CC[C@H](NC(=O)CCCCCCCCCCCCCCCCCCC(=O)O)C(=O)O)C(=O)N[C@@H](CC(N)=O)C(=O)N[C@@H]([C@@H](C)O)C(=O)N[C@@H](C)C(=O)N[C@@H]([C@@H](C)O)C(=O)N1)[C@@H](C)O)C(=O)N1CCC[C@H]1C(=O)N[C@@H](CO)C(=O)N[C@@H](CO)C(=O)N[C@H](C(=O)N[C@@H](CC(N)=O)C(=O)N[C@H](C(=O)NCC(=O)N1CCC[C@H]1C(=O)N[C@@H](CC(N)=O)C(=O)N[C@H](C(=O)N[C@@H](Cc1ccc(O)cc1)C(N)=O)[C@@H](C)O)C(C)C)[C@@H](C)O
notes: Synthetic acylated analogue of human amylin; also called compound 50

Legend:
[1] = molecular target: T1, human calcitonin receptor (human, UniProt P30988 25-474); experiment: cell-based or functional assay
T1 sequence (looked up): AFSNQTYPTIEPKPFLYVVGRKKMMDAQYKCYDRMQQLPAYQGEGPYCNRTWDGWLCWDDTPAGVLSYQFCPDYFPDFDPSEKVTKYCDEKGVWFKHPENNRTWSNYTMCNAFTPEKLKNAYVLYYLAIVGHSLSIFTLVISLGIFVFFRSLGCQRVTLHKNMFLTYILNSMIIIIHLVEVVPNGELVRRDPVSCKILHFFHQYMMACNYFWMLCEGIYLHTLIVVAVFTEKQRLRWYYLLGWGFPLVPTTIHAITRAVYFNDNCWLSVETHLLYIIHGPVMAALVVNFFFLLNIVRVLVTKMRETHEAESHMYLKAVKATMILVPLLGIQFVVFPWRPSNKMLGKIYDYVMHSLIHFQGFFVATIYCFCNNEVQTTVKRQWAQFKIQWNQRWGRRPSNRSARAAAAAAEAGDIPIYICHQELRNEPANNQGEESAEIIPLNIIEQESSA

[2] = molecular target: T2, human amylin receptor (amylin 3(a) receptor: human calcitonin receptor plus RAMP-3) (human, UniProt P30988 25-474; O60896 24-148, limits assumed); experiment: cell-based or functional assay
T2 sequence (looked up) 1: T1 sequence (looked up)
T2 sequence (looked up) 2: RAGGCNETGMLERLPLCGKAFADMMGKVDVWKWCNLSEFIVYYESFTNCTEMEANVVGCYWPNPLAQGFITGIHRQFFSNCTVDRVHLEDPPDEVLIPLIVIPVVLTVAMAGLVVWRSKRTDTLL

Binder | hCTR funct. EC50 [1] | Ratio hCT/hAmylin funct. [2] | hAmylin-R funct. EC50 [2]
B1 | 0.987 nM | 9.6 ratio | 0.103 nM
B2 | 5.46 nM | 15 ratio | 0.364 nM
B3 | 2.39 nM | 22.5 ratio | 0.106 nM
B4 | 5.22 nM | 14 ratio | 0.372 nM
B5 | 3 nM | 22.6 ratio | 0.133 nM
B6 | 0.662 nM | 17.4 ratio | 0.038 nM
